Results taken from patent publication US20250262210A1 (TRUSTEES OF COLUMBIA UNIVERSITY IN THE CITY OF NEW YORK, published 2025).

Tests used:
Assay in all cases: IP/MS, LZTR1 R810W-FLAG, U87
RNF213 = RNF213 (human, UniProt Q63HN8 1-5207, limits assumed)
In short: (§1)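 Gel slices were reduced with 5 mM DTT, alkylated with 11 mM IAA and digested overnight at 37° C. with trypsin. Peptides were analysed on an Orbitrap Fusion Tribrid by LC-MS/MS.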

HERC2 = HERC2 (human, UniProt O95714 1-4834)
In short: as §1

BUB1 = BUB1 (human, UniProt O43683 1-1085, limits assumed)
Chain of BUB1 (O43683 whole entry): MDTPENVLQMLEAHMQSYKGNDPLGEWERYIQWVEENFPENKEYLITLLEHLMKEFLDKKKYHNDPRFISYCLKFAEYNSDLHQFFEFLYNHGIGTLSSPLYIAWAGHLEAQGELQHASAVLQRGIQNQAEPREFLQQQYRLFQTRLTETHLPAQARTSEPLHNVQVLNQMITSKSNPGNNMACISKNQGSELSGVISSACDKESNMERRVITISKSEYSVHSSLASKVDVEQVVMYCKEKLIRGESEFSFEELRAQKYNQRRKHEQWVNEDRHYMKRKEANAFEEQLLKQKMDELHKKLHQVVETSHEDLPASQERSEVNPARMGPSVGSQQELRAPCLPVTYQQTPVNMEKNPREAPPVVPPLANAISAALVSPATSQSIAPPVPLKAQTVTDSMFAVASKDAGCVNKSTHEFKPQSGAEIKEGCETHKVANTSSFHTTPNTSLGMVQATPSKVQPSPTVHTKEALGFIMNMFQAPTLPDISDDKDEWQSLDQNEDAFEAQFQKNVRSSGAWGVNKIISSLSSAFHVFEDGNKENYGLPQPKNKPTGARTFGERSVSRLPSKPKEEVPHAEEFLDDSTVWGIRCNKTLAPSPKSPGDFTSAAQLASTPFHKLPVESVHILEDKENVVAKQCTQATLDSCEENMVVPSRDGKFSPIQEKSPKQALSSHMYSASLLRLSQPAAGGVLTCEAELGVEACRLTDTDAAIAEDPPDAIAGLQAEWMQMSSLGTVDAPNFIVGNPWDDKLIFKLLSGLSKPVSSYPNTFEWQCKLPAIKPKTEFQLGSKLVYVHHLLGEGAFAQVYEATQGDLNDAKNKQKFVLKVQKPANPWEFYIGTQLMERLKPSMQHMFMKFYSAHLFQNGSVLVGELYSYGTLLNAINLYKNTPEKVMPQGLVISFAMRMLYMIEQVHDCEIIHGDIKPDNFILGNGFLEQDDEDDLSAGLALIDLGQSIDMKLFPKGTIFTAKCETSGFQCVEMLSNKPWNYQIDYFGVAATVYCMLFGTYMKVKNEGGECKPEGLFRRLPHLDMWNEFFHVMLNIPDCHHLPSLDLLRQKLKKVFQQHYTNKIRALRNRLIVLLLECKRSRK
In short: as §1

CDC42BPB = CDC42BPB (human, UniProt Q9Y5S2 1-1711)
Chain of CDC42BPB (Q9Y5S2 whole entry): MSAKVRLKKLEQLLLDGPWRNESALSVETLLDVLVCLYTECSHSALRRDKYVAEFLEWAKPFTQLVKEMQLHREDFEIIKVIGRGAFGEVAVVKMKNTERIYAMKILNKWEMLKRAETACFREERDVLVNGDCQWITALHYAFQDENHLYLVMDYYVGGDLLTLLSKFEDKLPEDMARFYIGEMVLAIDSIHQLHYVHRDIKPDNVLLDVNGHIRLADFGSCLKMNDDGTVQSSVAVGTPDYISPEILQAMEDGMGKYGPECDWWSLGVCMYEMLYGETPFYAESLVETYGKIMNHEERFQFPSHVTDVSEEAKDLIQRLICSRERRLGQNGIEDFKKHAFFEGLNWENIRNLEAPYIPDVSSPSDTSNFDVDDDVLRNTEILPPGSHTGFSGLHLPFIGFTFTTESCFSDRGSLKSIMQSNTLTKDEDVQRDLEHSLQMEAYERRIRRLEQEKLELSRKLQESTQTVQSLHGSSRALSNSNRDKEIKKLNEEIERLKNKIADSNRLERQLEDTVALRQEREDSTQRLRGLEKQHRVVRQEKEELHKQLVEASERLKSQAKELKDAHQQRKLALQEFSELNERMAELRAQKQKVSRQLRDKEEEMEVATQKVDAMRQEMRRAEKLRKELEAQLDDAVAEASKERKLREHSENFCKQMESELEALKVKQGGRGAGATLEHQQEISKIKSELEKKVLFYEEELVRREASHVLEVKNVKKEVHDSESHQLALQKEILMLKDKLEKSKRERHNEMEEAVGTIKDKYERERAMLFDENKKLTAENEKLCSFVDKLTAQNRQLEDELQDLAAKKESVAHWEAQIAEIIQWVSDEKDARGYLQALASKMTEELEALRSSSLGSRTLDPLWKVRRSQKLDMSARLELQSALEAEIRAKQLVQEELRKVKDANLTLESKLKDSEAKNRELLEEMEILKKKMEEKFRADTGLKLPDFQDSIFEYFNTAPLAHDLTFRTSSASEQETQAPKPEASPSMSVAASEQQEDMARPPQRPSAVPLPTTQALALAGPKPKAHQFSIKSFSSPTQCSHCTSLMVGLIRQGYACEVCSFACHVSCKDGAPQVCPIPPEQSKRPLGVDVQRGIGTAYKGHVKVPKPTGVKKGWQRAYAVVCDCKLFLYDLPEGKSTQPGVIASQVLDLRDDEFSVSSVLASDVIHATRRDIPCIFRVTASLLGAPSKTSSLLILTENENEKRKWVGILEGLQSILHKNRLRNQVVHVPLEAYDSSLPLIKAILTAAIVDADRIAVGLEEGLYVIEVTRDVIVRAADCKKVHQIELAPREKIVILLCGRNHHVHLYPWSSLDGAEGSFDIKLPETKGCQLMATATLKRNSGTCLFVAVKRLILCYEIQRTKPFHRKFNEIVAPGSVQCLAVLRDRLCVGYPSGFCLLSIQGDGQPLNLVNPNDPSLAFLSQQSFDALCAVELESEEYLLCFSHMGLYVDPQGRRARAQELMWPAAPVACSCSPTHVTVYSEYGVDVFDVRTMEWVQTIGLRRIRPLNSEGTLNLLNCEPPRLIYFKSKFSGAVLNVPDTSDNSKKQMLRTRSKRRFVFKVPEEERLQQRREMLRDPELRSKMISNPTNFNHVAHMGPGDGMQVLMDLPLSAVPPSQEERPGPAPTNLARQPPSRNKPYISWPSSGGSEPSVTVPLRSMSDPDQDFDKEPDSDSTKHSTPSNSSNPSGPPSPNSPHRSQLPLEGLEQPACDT
In short: as §1

TRIM16 = TRIM16 (human, UniProt O95361 1-564, limits assumed)
In short: as §1

HTT = HTT (human, UniProt P42858 1-3142)
In short: as §1

SPG11 = SPG11 (human, UniProt Q96JI7 1-2443, limits assumed)
In short: as §1

NCAPD3 = biological target: T1, NCAPD3 (human, UniProt P42695 1-1498)
T1 sequence (looked up): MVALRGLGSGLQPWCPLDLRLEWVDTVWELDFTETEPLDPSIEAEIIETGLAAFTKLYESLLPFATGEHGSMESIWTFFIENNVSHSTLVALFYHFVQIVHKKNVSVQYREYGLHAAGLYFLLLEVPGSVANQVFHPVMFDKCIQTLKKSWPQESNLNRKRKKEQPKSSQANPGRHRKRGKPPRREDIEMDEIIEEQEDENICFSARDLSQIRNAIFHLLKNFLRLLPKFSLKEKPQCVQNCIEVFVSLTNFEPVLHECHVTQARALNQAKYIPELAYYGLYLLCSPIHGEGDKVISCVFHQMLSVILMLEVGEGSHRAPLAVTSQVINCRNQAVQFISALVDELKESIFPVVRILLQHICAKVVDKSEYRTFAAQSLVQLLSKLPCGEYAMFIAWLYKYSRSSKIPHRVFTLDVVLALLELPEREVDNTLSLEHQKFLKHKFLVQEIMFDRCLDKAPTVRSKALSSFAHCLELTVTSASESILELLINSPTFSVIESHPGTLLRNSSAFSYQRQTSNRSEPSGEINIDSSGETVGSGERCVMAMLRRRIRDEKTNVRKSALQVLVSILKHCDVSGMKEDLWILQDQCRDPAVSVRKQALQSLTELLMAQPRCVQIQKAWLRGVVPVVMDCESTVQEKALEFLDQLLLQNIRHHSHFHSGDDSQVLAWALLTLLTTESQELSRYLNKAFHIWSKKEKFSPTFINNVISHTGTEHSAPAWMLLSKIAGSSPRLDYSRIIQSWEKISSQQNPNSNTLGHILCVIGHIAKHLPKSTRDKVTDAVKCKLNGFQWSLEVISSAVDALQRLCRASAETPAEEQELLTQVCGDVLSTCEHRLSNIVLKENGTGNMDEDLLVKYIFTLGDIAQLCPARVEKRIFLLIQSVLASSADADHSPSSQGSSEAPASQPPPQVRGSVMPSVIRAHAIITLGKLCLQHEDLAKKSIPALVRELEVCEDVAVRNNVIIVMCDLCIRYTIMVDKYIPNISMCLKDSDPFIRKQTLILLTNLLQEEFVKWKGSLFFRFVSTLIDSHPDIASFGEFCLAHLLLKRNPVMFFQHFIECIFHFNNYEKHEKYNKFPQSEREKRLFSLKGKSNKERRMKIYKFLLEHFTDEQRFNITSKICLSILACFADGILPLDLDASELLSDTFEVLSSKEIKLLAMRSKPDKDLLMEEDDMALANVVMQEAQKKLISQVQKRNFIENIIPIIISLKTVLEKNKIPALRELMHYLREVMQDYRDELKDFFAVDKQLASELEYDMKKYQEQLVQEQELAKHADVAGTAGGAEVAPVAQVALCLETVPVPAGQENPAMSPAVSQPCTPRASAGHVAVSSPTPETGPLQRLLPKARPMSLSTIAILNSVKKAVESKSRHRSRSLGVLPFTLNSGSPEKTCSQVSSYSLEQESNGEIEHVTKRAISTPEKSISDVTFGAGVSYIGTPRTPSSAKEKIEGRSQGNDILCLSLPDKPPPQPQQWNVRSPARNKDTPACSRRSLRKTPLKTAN
In short: as §1

KIF1B = KIF1B (human, UniProt O60333 2-1816, limits assumed)
Chain of KIF1B (O60333 2-1816 limits assumed): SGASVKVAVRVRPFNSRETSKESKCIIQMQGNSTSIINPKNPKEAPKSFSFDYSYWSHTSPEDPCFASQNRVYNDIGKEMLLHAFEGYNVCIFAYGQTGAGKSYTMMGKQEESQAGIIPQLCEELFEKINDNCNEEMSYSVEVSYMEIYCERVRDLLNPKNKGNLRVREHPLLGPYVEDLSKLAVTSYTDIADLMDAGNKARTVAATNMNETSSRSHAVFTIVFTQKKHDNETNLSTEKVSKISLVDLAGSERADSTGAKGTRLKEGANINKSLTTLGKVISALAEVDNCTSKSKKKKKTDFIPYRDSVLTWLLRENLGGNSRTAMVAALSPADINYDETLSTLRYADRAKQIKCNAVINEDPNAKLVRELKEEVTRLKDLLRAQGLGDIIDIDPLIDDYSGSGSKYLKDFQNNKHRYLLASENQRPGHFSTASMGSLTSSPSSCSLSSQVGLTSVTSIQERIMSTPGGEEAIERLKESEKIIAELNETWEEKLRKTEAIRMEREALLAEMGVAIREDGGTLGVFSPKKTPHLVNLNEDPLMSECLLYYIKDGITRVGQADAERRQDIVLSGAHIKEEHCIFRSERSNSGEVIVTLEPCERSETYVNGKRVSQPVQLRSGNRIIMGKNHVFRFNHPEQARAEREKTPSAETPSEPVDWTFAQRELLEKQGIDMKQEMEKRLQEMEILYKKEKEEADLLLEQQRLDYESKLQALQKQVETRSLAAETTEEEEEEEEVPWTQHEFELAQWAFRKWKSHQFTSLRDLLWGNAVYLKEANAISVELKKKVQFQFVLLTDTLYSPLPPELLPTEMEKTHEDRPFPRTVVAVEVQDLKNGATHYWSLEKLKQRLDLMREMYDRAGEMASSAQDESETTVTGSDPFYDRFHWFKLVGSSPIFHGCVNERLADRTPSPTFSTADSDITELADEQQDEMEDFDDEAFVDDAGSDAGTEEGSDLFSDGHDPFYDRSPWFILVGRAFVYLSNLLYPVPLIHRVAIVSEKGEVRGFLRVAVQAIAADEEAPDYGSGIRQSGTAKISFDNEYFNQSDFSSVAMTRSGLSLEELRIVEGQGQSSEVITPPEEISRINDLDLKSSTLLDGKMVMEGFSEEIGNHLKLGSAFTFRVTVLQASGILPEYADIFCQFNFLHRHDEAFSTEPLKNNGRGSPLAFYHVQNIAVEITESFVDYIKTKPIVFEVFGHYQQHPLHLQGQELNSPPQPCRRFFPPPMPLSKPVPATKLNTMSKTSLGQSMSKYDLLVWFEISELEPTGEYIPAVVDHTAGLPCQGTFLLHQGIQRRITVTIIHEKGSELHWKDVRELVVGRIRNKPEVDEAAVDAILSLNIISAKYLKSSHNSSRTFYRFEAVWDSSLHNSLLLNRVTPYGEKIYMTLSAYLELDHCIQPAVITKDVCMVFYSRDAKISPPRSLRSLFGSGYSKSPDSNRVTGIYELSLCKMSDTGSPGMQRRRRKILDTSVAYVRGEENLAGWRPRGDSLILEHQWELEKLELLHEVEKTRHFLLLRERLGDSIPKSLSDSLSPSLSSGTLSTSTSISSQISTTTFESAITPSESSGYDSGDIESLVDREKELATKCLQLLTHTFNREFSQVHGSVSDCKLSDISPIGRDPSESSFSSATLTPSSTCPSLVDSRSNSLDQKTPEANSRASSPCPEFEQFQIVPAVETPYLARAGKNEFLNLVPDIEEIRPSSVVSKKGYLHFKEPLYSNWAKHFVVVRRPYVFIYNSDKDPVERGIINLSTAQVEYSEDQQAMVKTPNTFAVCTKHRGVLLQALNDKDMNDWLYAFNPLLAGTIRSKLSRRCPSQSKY
In short: as §1

Measured: binding result

B1: LZTR1 R810W-FLAG (other, human, UniProt Q8N653 1-840, looked up)
chain: MAGPGSTGGQIGAAALAGGARSKVAPSVDFDHSCSDSVEYLTLNFGPFETVHRWRRLPPCDEFVGARRSKHTVVAYKDAIYVFGGDNGKTMLNDLLRFDVKDCSWCRAFTTGTPPAPRYHHSAVVYGSSMFVFGGYTGDIYSNSNLKNKNDLFEYKFATGQWTEWKIEGRLPVARSAHGATVYSDKLWIFAGYDGNARLNDMWTIGLQDRELTCWEEVAQSGEIPPSCCNFPVAVCRDKMFVFSGQSGAKITNNLFQFEFKDKTWTRIPTEHLLRGSPPPPQRRYGHTMVAFDRHLYVFGGAADNTLPNELHCYDVDFQTWEVVQPSSDSEVGGAEVPERACASEEVPTLTYEERVGFKKSRDVFGLDFGTTSAKQPTQPASELPSGRLFHAAAVISDAMYIFGGTVDNNIRSGEMYRFQFSCYPKCTLHEDYGRLWESRQFCDVEFVLGEKEECVQGHVAIVTARSRWLRRKITQARERLAQKLEQEAAPVPREAPGVAAGGARPPLLHVAIREAEARPFEVLMQFLYTDKIKYPRKGHVEDVLLIMDVYKLALSFQLCRLEQLCRQYIEASVDLQNVLVVCESAARLQLSQLKEHCLNFVVKESHFNQVIMMKEFERLSSPLIVEIVRRKQQPPPRTPLDQPVDIGTSLIQDMKAYLEGAGAEFCDITLLLDGHPRPAHKAILAARSSYFEAMFRSFMPEDGQVNISIGEMVPSRQAFESMLRYIYYGEVNMPPEDSLYLFAAPYYYGFYNNRLQAYCKQNLEMNVTVQNVLQILEAADKTQALDMKRHCLHIIVHQFTKVSKLPTLWSLSQQLLLDIIDSLASHISDKQCAELGADI
notes: Stably expressed in U87 cells by lentivirus; also called LZTR1-FLAG-R810W; LZTR1 RW; not shown: FLAG tag
binds: all assays above
